Assay results published in article PMC9482650, “Quantitative fragmentomics allow affinity mapping of interactomes” (Nature Communications, 2022).

What was measured:
Experiment in all cases: holdup assay
Parameters in all cases: key: below the threshold = too weak to quantify, mostly under pKd 3.1 to 4
Conditions in all cases: plain residues with an end cap or a label only (N-terminal biotin on a linker: ado-ado)
ARHGAP21, Q5T5U3 = molecular target: T1, ARHGAP21, Q5T5U3
T1 sequence (Q5T5U3 45-169, limits assumed, looked up): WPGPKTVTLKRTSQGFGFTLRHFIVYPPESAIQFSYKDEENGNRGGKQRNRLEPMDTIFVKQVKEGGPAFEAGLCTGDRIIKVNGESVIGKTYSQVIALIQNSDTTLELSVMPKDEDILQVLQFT

ARHGEF11, O15085 = molecular target: T2, ARHGEF11, O15085
T2 sequence (O15085 42-136, limits assumed, looked up): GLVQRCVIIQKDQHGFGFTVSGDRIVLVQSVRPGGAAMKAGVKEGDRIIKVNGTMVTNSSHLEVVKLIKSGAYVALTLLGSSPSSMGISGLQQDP

DFNB31_3, Q9P202 = molecular target: T3, DFNB31_3, Q9P202
T3 sequence (Q9P202 811-907, limits assumed, looked up): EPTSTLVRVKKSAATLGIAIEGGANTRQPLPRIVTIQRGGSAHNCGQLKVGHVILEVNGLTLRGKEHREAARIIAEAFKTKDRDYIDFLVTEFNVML

DLG4_2, P78352 = molecular target: DLG4_2, P78352
Chain of DLG4_2, P78352 (P78352 155-259): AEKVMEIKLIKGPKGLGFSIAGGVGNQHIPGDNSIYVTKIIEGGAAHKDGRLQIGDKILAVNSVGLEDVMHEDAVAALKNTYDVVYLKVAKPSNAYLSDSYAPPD

FRMPD2_1, Q68DX3 = molecular target: FRMPD2_1, Q68DX3
Chain of FRMPD2_1, Q68DX3 (Q68DX3 770-861): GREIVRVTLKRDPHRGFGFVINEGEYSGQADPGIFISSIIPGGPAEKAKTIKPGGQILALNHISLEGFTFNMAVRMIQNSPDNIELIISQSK

GRIP1_2, Q9Y3R0 = molecular target: T4, GRIP1_2, Q9Y3R0
T4 sequence (Q9Y3R0 145-248, limits assumed, looked up): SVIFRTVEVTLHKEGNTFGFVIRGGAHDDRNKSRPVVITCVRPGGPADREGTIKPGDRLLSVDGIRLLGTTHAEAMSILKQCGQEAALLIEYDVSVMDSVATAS

GRIP1_7, Q9Y3R0 = molecular target: T5, GRIP1_7, Q9Y3R0
T5 sequence (Q9Y3R0 999-1096, limits assumed, looked up): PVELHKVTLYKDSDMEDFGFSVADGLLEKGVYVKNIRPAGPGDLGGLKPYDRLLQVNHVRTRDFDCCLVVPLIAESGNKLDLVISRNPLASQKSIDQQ

GRIP2_5, Q9C0E4 = molecular target: GRIP2_5, Q9C0E4
Chain of GRIP2_5, Q9C0E4 (Q9C0E4 544-642): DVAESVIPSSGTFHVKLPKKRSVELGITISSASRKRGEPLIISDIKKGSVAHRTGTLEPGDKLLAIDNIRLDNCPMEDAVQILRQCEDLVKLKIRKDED

IL16_3, Q14005 = molecular target: IL16_3, Q14005
Chain of IL16_3, Q14005 (Q14005 1107-1207): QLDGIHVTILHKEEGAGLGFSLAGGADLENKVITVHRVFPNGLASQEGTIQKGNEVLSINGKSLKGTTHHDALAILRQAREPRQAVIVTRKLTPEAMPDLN

IL16_4, Q14005 = molecular target: IL16_4, Q14005
Chain of IL16_4, Q14005 (Q14005 1229-1329): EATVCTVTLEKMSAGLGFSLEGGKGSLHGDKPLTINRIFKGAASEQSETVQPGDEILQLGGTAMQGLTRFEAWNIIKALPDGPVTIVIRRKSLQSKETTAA

Inadl_3, Q8NI35 = molecular target: Inadl_3, Q8NI35
Chain of Inadl_3, Q8NI35 (Q8NI35 359-469): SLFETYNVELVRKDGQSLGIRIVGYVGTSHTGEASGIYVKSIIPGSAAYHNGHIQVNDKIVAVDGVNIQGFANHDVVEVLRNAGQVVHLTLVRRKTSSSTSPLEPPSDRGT

LAP2, Q96RT1 = molecular target: LAP2, Q96RT1
Chain of LAP2, Q96RT1 (Q96RT1 other isoform, or with tags, fused parts or gaps): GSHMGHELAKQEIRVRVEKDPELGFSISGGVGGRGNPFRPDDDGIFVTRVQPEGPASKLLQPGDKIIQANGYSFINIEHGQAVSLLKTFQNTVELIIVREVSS

LNX1_3, Q8TBB1 = molecular target: LNX1_3, Q8TBB1
Chain of LNX1_3, Q8TBB1 (Q8TBB1 500-596): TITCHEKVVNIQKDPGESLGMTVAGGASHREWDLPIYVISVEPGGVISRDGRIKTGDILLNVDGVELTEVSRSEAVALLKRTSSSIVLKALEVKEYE

LNX2_3, Q8N448 = molecular target: T6, LNX2_3, Q8N448
T6 sequence (Q8N448 463-564, limits assumed, looked up): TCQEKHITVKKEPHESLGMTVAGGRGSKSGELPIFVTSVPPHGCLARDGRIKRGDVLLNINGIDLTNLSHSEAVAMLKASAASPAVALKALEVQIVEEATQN

MAGI2_3, Q86UL8 = molecular target: MAGI2_3, Q86UL8
Chain of MAGI2_3, Q86UL8 (Q86UL8 600-682): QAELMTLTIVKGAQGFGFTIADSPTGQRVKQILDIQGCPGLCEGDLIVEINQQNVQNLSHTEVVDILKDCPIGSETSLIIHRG

MAGI2_6, Q86UL8 = molecular target: MAGI2_6, Q86UL8
Chain of MAGI2_6, Q86UL8 (Q86UL8 1141-1229): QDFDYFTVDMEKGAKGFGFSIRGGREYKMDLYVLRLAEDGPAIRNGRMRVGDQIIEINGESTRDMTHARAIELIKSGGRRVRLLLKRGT

MAST1, Q9Y2H9 = molecular target: MAST1, Q9Y2H9
Chain of MAST1, Q9Y2H9 (Q9Y2H9 962-1065): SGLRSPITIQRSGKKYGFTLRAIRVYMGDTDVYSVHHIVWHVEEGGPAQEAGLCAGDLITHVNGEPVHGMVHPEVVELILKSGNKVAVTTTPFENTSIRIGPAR

MPDZ_10, O75970 = molecular target: T7, MPDZ_10, O75970
T7 sequence (O75970 1624-1722, limits assumed, looked up): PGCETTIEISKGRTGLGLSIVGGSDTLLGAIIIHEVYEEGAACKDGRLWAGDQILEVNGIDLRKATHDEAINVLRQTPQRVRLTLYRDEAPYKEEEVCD

MPDZ_12, O75970 = molecular target: T8, MPDZ_12, O75970
T8 sequence (O75970 1857-1958, limits assumed, looked up): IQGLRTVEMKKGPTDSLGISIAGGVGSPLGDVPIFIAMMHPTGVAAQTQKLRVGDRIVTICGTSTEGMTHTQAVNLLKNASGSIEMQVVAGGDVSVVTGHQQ

NHERF3_4, Q5T2W1 = molecular target: T9, NHERF3_4, Q5T2W1
T9 sequence (Q5T2W1 373-468, limits assumed, looked up): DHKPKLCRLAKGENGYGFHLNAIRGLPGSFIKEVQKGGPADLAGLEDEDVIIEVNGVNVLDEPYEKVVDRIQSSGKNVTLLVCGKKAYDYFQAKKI

PARD3B_1, Q8TEW8 = molecular target: T10, PARD3B_1, Q8TEW8
T10 sequence (Q8TEW8 196-299, limits assumed, looked up): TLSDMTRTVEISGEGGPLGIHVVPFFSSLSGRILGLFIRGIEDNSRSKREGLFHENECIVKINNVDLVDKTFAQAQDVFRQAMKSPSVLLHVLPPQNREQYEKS

PCLO, Q9Y6V0 = molecular target: T11, PCLO, Q9Y6V0
T11 sequence (Q9Y6V0 4491-4600, limits assumed, looked up): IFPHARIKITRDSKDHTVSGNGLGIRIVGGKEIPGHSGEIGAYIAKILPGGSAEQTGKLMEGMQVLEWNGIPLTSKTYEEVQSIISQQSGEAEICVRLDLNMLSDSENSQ

SIPA1L2, Q9P2F8 = molecular target: T12, SIPA1L2, Q9P2F8
T12 sequence (Q9P2F8 945-1036, limits assumed, looked up): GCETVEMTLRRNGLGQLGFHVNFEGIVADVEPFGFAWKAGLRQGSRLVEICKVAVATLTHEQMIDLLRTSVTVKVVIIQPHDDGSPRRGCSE

SNTB1, Q13884 = molecular target: T13, SNTB1, Q13884
T13 sequence (Q13884 107-205, limits assumed, looked up): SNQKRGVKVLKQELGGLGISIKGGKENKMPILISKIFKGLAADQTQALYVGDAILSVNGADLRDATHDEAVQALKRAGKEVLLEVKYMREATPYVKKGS

Row | Binder | pKd (ARHGAP21, Q5T5U3) | pKd (ARHGEF11, O15085) | pKd (DFNB31_3, Q9P202) | pKd (DLG4_2, P78352) | pKd (FRMPD2_1, Q68DX3) | pKd (GRIP1_2, Q9Y3R0) | pKd (GRIP1_7, Q9Y3R0) | pKd (GRIP2_5, Q9C0E4) | pKd (IL16_3, Q14005) | pKd (IL16_4, Q14005) | pKd (Inadl_3, Q8NI35) | pKd (LAP2, Q96RT1) | pKd (LNX1_3, Q8TBB1) | pKd (LNX2_3, Q8N448) | pKd (MAGI2_3, Q86UL8) | pKd (MAGI2_6, Q86UL8) | pKd (MAST1, Q9Y2H9) | pKd (MPDZ_10, O75970) | pKd (MPDZ_12, O75970) | pKd (NHERF3_4, Q5T2W1) | also measured
1 | AAVENKVTDL [PLXNB1, O43157] | 4.07 | 4.65 | 3.94 | 4.2 | below the threshold | below the threshold | below the threshold | below the threshold | below the threshold | below the threshold | below the threshold | 3.54 | below the threshold | below the threshold | below the threshold | 4.99 | 4.67 | below the threshold | below the threshold | 3.47 | pKd (PARD3B_1, Q8TEW8): 3.54; pKd (PCLO, Q9Y6V0): below the threshold; pKd (SIPA1L2, Q9P2F8): below the threshold; pKd (SNTB1, Q13884): 4.63
2 | PYPTADHMLA [JUP, P14923] | below the threshold | below the threshold | 3.83 | below the threshold | below the threshold | below the threshold | below the threshold | below the threshold | below the threshold | below the threshold | below the threshold | below the threshold | below the threshold | below the threshold | below the threshold | below the threshold | below the threshold | below the threshold | below the threshold | below the threshold | pKd (PARD3B_1, Q8TEW8): below the threshold; pKd (PCLO, Q9Y6V0): below the threshold; pKd (SIPA1L2, Q9P2F8): below the threshold; pKd (SNTB1, Q13884): below the threshold
3 | TGLWKHETTV [ADGRA3, Q8IWK6] | 3.92 | 4.31 | 3.85 | 5.41 | below the threshold | below the threshold | below the threshold | below the threshold | below the threshold | below the threshold | 3.86 | 4.32 | below the threshold | below the threshold | 4.02 | 3.86 | 4.78 | below the threshold | below the threshold | below the threshold | pKd (PARD3B_1, Q8TEW8): below the threshold; pKd (PCLO, Q9Y6V0): below the threshold; pKd (SIPA1L2, Q9P2F8): below the threshold; pKd (SNTB1, Q13884): 4.84
4 | KPGKGSETVV [FZD4, Q9ULV1] | 3.93 | 3.69 | below the threshold | 4.92 | 3.54 | below the threshold | below the threshold | below the threshold | below the threshold | below the threshold | 3.55 | below the threshold | below the threshold | below the threshold | below the threshold | below the threshold | 4.4 | below the threshold | below the threshold | below the threshold | pKd (PARD3B_1, Q8TEW8): below the threshold; pKd (PCLO, Q9Y6V0): below the threshold; pKd (SIPA1L2, Q9P2F8): below the threshold; pKd (SNTB1, Q13884): 4.78
5 | EKCGKEFSEF [PRKACA, P17612] | below the threshold | below the threshold | below the threshold | below the threshold | below the threshold | below the threshold | below the threshold | below the threshold | below the threshold | below the threshold | below the threshold | below the threshold | below the threshold | below the threshold | below the threshold | below the threshold | 4.21 | below the threshold | below the threshold | below the threshold | pKd (PARD3B_1, Q8TEW8): 3.91; pKd (PCLO, Q9Y6V0): below the threshold; pKd (SIPA1L2, Q9P2F8): below the threshold; pKd (SNTB1, Q13884): below the threshold
6 | QKAPTKEFYA [SDC2, P34741] | below the threshold | below the threshold | 3.91 | below the threshold | 4.1 | below the threshold | below the threshold | below the threshold | below the threshold | below the threshold | below the threshold | below the threshold | below the threshold | below the threshold | below the threshold | below the threshold | below the threshold | below the threshold | 3.5 | 3.82 | pKd (PARD3B_1, Q8TEW8): 4.39; pKd (PCLO, Q9Y6V0): below the threshold; pKd (SIPA1L2, Q9P2F8): below the threshold; pKd (SNTB1, Q13884): below the threshold
